Data reported in patent US20230227838A1, “ENHANCED CELL SURVIVAL AGAINST BIOTIC AND ABIOTIC STRESSES THROUGH SALICYLICK ACID-INDUCED NPR1 CONDENSATES” (priority 2020, published 2023).

Each binder was assayed against sim3-GFP (Arabidopsis thaliana) (UniProt P93002) (assay: sim3-GFP IP, LC-MS/MS).
Sequence of sim3-GFP (Arabidopsis thaliana) (P93002 other isoform, or with tags, fused parts or gaps): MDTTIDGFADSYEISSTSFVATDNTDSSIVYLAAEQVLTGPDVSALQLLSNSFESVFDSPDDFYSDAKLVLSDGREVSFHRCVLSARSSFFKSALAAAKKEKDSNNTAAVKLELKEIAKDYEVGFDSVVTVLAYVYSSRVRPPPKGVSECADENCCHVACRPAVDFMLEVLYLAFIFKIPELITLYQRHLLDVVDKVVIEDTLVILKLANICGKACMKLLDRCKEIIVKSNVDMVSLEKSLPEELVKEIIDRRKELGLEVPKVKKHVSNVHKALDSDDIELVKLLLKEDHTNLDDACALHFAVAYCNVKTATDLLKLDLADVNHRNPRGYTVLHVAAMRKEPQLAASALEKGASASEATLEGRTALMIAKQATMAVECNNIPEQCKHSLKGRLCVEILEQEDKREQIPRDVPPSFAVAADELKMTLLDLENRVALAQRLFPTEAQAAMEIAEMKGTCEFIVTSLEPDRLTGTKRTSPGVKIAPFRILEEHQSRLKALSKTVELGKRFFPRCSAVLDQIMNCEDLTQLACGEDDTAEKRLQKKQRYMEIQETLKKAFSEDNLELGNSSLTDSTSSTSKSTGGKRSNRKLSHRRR

Row | Binder | Normalized Fold Change: SA vs Mock [fold]
1 | GRF6, G-box regulating factor 6 (protein, UniProt P48349 1-248, looked up) 14-3-3-like protein G-BOX factor 14 lambda: MAATLGRDQYVYMAKLAEQAERYEEMVQFMEQLVTGATPAEELTVEERNLLSVAYKNVIGSLRAAWRIVSSIEQKEESRKNDEHVSLVKDYRSKVESELSSVCSGILKLLDSHLIPSAGASESKVFYLKMKGDYHRYMAEFKSGDERKTAAEDTMLAYKAAQDIAAADMAPTHPIRLGLALNFSVFYYEILNSSDKACNMAKQAFEEAIAELDTLGEESYKDSTLIMQLLRDNLTLWTSDMQEQMDEA | 2.01
2 | ALDH7B4, aldehyde dehydrogenase 7B4 (protein, UniProt Q9SYG7 1-508, looked up) Aldehyde dehydrogenase family 7 member B4: MGSANNEYEFLSEIGLTSHNLGSYVAGKWQANGPLVSTLNPANNQPIAQVVEASLEDYEQGLKACEEAAKIWMQVTAPKRGDIVRQIGDALRSKLDYLGRLLSLEMGKILAEGIGEVQEVIDMCDFAVGLSRQLNGSVIPSERPNHMMLEMWNPLGIVGVITAFNFPCAVLGWNACIALVCGNCVVWKGAPTTPLITIAMTKLVAEVLEKNNLPGAIFTAMCGGAEIGEAIAKDTRIPLVSFTGSSRVGSMVQQTVNARSGKTLLELSGNNAIIVMDDADIQLAARSVLFAAVGTAGQRCTTCRRLLLHESVYDKVLEQLLTSYKQVKIGNPLEKGTLLGPLHTPESKKNFEKGIEVIKSQGGKILTGGKAVEGEGNFVEPTIIEISADAAVVKEELFAPVLYVLKFKSFGEAVAINNSVPQGLSSSIFTRNPENIFRWIGPLGSDCGIVNVNIPTNGAEIGGAFGGEKATGGGREAGSDSWKQYMRRSTCTINYGNELPLAQGINFG | 2.01
3 | GPX8, glutathione peroxidase 8 (protein, UniProt Q8LBU2 1-167, looked up) Probable glutathione peroxidase 8: MATKEPESVYELSIEDAKGNNLALSQYKDKVLLIVNVASKCGMTNSNYTELNELYNRYKDKGLEILAFPCNQFGDEEPGTNDQITDFVCTRFKSEFPIFNKIEVNGENASPLYKFLKKGKWGIFGDDIQWNFAKFLVDKNGQAVQRYYPTTSPLTLEHDIKNLLNIS | 19.6
4 | DMR6, 2-oxoglutarate (2OG) and Fe(II)-dependent oxygenase superfamily protein (protein, UniProt Q9FLV0 1-341, looked up) Protein DOWNY MILDEW RESISTANCE 6: MAAKLISTGFRHTTLPENYVRPISDRPRLSEVSQLEDFPLIDLSSTDRSFLIQQIHQACARFGFFQVINHGVNKQIIDEMVSVAREFFSMSMEEKMKLYSDDPTKTTRLSTSFNVKKEEVNNWRDYLRLHCYPIHKYVNEWPSNPPSFKEIVSKYSREVREVGFKIEELISESLGLEKDYMKKVLGEQGQHMAVNYYPPCPEPELTYGLPAHTDPNALTILLQDTTVCGLQILIDGQWFAVNPHPDAFVINIGDQLQALSNGVYKSVWHRAVTNTENPRLSVASFLCPADCAVMSPAKPLWEAEDDETKPVYKDFTYAEYYKKFWSRNLDQEHCLENFLNN | 15.6
5 | ELI3-2, elicitor-activated gene 3-2 (protein, UniProt Q02972 1-359, looked up) Cinnamyl alcohol dehydrogenase 8: MGKVLQKEAFGLAAKDNSGVLSPFSFTRRETGEKDVRFKVLFCGICHSDLHMVKNEWGMSTYPLVPGHEIVGVVTEVGAKVTKFKTGEKVGVGCLVSSCGSCDSCTEGMENYCPKSIQTYGFPYYDNTITYGGYSDHMVCEEGFVIRIPDNLPLDAAAPLLCAGITVYSPMKYHGLDKPGMHIGVVGLGGLGHVGVKFAKAMGTKVTVISTSEKKRDEAINRLGADAFLVSRDPKQIKDAMGTMDGIIDTVSATHSLLPLLGLLKHKGKLVMVGAPEKPLELPVMPLIFERKMVMGSMIGGIKETQEMIDMAGKHNITADIELISADYVNTAMERLEKADVRYRFVIDVANTLKPNPNL | 57

Further lines, results first:

Row | Normalized Fold Change: SA vs Mock [fold] | Binder
6 | 3.43 | PCS1, phytochelatin synthase 1 (PCS1) (protein, UniProt Q9S7Z3 1-485, looked up) Glutathione gamma-glutamylcysteinyltransferase 1: MAMASLYRRSLPSPPAIDFSSAEGKLIFNEALQKGTMEGFFRLISYFQTQSEPAYCGLASLSVVLNALSIDPGRKWKGPWRWFDESMLDCCEPLEVVKEKGISFGKVVCLAHCSGAKVEAFRTSQSTIDDFRKFVVKCTSSENCHMISTYHRGVFKQTGTGHFSPIGGYNAERDMALILDVARFKYPPHWVPLKLLWEAMDSIDQSTGKRRGFMLISRPHREPGLLYTLSCKDESWIEIAKYLKEDVPRLVSSQHVDSVEKIISVVFKSLPSNFNQFIRWVAEIRITEDSNQNLSAEEKSRLKLKQLVLKEVHETELFKHINKFLSTVGYEDSLTYAAAKACCQGAEILSGSPSKEFCCRETCVKCIKGPDDSEGTVVTGVVVRDGNEQKVDLLVPSTQTECECGPEATYPAGNDVFTALLLALPPQTWSGIKDQALMHEMKQLISMASLPTLLQEEVLHLRRQLQLLKRCQENKEEDDLAAPAY
7 | 2.2 | PDIL2-2, PDI-like 2-2 (protein, UniProt Q9MAU6 27-447, looked up) Protein disulfide-isomerase like 2-2: LYGSSSPVLQLTPSNFKSKVLNSNGVVLVEFFAPWCGHCQSLTPTWEKVASTLKGIATVAAIDADAHKSVSQDYGVRGFPTIKVFVPGKPPIDYQGARDAKSISQFAIKQIKALLKDRLDGKTSGTKNGGGSSEKKKSEPSASVELNSSNFDELVTESKELWIVEFFAPWCGHCKKLAPEWKKAANNLKGKVKLGHVNCDAEQSIKSRFKVQGFPTILVFGSDKSSPVPYEGARSASAIESFALEQLESNAGPAEVTELTGPDVMEDKCGSAAICFVSFLPDILDSKAEGRNKYLEMLLSVADKFKKDPYGFVWVAAGKQPDLEKRVGVGGYGYPAMVALNAKKGAYAPLKSGFEVKHLKDFVKEAAKGGKGNLPIDGTMEIVKTEAWDGKDGEVVDADEFSLEDLMGNDDEASTESKDDL
8 | 8.08 | UGT73B2, UDP-glucosyltransferase 73B2 (protein, UniProt Q94C57 1-483, looked up) UDP-glucosyl transferase 73B2: MGSDHHHRKLHVMFFPFMAYGHMIPTLDMAKLFSSRGAKSTILTTSLNSKILQKPIDTFKNLNPGLEIDIQIFNFPCVELGLPEGCENVDFFTSNNNDDKNEMIVKFFFSTRFFKDQLEKLLGTTRPDCLIADMFFPWATEAAGKFNVPRLVFHGTGYFSLCAGYCIGVHKPQKRVASSSEPFVIPELPGNIVITEEQIIDGDGESDMGKFMTEVRESEVKSSGVVLNSFYELEHDYADFYKSCVQKRAWHIGPLSVYNRGFEEKAERGKKANIDEAECLKWLDSKKPNSVIYVSFGSVAFFKNEQLFEIAAGLEASGTSFIWVVRKTKDDREEWLPEGFEERVKGKGMIIRGWAPQVLILDHQATGGFVTHCGWNSLLEGVAAGLPMVTWPVGAEQFYNEKLVTQVLRTGVSVGASKHMKVMMGDFISREKVDKAVREVLAGEAAEERRRRAKKLAAMAKAAVEEGGSSFNDLNSFMEEFSS
9 | 3.95 | UBC36, ubiquitin-conjugating enzyme 36 (protein, UniProt Q9FZ48 1-153, looked up) Ubiquitin-conjugating enzyme E2 36: MANSNLPRRIIKETQRLLSEPAPGISASPSEENMRYFNVMILGPTQSPYEGGVFKLELFLPEEYPMAAPKVRFLTKIYHPNIDKLGRICLDILKDKWSPALQIRTVLLSIQALLSAPNPDDPLSENIAKHWKSNEAEAVETAKEWTRLYASGA
10 | 3.13 | PNG1, peptide-N-glycanase 1 (protein, UniProt Q9FGY9 1-721, looked up) Peptide-N(4)-(N-acetyl-beta-glucosaminyl)asparagine amidase: MVARKFVVRHEDSSFDVDYNTEDGLEVLRFLIFSLTLVPPEEQKIVAEDDNRLVSDESDLASLSERLRLVSVGEDSVENSDAEMLKSDEELARMLQAEEDAIMFQQFVAARDNGEFEGRIRPYVSQVLMYEDPVRQDAARKTVPKDELEEKALVSLAKEGNFEPSKEERDYAFLLQLLFWFKKSFRWVNEPPCDFCGNKTIGQGMGNPLTSELAYGANRVEIYRCTMCPTTTRFPRYNDPLKLVETKKGRCGEWANCFTLYCRTFGYDSRLIMDFTDHVWTECYSHSLKRWIHLDPCEGVYDKPMLYEKGWNKKLNYVIAISKDGVCDVTKRYTKKWHEVLSRRTLTTESSLQDGLRTLTRERRRSLMFESLSKLELRDRNEQEELERNLHSADNASVSLPGRQSGDREWRIMRSEFGSDENSSVSSSSCPVRKCVDDHVTNIYDSFLPILTQFVEDGLPVARTNEVLKMIKQVLVDLKNAPYKTRKARLTLDSDNSSSFPEQFLPALGDLLLALSLKSERDTNGKSVTISVDGKLTKTAIALPVALDALRELVADLSKYQNLNKDSLSFPLVKQNRVCSGSVLASGEELPSGIATAAFDGIQESKWEEPNGAKGCWIVYKTLYNQMHQLIAYELMSANDAPERDPKDWILEGSNDGGSTWCVLDKQTSQVFEERFQRKSYKITTPGFQANLFRFRFLSVRDVNSTSRLQLGSIDLYRSHQ
